1 substance from US20130115676 can be followed below.

Changes are numbered by the printed parent chain. Bounds are passed on as bounds.

Holding throughout (assay): cleavage_in_vitro
The test system of one series is BsmBI-HF N185Y/R232A. As to conditions: NEB4, 10 mM Mg acetate, 55 C; listed as BsmBI.
The target in series [1] is T1, BamHI (Bacillus amyloliquefaciens) (UniProt P23940).
T1 sequence: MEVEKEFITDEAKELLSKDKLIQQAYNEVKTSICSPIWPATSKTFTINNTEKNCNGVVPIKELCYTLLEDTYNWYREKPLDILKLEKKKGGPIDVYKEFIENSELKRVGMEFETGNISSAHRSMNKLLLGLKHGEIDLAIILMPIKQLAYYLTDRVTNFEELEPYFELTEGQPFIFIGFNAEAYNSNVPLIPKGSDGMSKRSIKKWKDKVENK
As to conditions: NEB3, 10 mM MgCl2, 37 C.

The next series has as its system BstXI. As to conditions: NEB4, 10 mM Mg acetate, 55 C.
Series [2] concerns the target T2, HpaI (Haemophilus parainfluenzae) (UniProt P29537).
T2 sequence: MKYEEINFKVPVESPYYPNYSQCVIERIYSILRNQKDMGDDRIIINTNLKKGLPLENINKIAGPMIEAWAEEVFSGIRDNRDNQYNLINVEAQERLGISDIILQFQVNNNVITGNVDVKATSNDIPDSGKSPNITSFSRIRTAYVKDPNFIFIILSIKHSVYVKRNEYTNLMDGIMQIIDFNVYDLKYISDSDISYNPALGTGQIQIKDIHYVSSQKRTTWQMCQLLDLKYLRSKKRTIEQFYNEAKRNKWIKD
As to conditions: NEB4, 10 mM Mg acetate, 37 C.

Series [3] has as its system T3, BspQI (Bacillus sphaericus).
T3 sequence: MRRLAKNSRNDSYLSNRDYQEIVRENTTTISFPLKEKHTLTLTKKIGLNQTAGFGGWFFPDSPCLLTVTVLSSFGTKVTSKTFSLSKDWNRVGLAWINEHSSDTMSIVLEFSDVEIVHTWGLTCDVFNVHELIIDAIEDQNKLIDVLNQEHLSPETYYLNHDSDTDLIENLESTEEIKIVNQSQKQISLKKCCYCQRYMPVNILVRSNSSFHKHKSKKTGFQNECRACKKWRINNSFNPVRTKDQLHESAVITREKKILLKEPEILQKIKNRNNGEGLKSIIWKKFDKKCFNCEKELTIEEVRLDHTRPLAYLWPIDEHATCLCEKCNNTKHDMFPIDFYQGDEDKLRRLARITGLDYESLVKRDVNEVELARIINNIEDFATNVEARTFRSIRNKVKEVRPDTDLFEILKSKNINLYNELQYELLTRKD
As to conditions: NEB3, 10 mM MgCl2, 50 C.

Series [4] deals with T4, NcoI-HF A2T/R31A (Nocardia corallina).
T4 sequence: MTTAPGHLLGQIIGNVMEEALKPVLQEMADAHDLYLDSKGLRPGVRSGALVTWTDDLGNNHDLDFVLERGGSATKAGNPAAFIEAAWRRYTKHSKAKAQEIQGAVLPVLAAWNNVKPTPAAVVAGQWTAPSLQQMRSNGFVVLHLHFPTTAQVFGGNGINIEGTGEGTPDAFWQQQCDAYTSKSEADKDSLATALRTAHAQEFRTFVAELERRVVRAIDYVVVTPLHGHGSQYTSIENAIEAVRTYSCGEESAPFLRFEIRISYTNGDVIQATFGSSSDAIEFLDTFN
As to conditions: NEB4, 10 mM Mg acetate, 37 C.

For another series, the system named is BstXI-HF N65A. The settings on record: NEB4, 10 mM Mg acetate, 55 C.
In series [5] the target is T5, PstI-HF D91A (Providencia stuartii 164) (UniProt P00640).
T5 sequence: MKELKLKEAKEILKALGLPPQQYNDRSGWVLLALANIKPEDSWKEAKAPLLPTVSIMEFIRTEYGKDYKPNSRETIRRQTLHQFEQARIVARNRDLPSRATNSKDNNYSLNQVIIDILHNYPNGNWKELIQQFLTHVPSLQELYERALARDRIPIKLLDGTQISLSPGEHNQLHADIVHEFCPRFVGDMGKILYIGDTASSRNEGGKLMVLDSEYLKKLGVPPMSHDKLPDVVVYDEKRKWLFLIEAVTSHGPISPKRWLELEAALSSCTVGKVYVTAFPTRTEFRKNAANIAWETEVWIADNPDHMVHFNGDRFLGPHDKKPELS
As to conditions: NEB4, 10 mM Mg acetate, 37 C.

Series [6] deals with EcoRI-HF K62E (Escherichia coli RY13) (UniProt P00642). As to conditions: NEB4, 10 mM Mg acetate, 37 C.
Series [7] deals with T6, ScaI-HF H193A/S201F (Streptomyces caespitosus) (UniProt O52691).
T6 sequence: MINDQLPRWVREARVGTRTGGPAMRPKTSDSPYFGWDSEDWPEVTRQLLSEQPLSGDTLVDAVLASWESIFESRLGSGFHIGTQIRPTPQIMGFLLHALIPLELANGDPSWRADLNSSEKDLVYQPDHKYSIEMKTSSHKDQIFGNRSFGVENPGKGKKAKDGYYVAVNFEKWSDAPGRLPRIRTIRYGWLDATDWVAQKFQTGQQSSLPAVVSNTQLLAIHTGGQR
As to conditions: NEB4, 10 mM Mg acetate, 37 C.

The target of series [8] is T7, PstI (Providencia stuartii 164) (UniProt P00640).
T7 sequence: T5 sequence with A91D
As to conditions: NEB3, 10 mM MgCl2, 37 C.

Series [9] concerns the target EcoRI (Escherichia coli RY13) (UniProt P00642). The settings on record: NEB3, 10 mM MgCl2, 37 C.
Series [10] concerns T8, SbfI (Streptomyces species Bf-61?).
T8 sequence: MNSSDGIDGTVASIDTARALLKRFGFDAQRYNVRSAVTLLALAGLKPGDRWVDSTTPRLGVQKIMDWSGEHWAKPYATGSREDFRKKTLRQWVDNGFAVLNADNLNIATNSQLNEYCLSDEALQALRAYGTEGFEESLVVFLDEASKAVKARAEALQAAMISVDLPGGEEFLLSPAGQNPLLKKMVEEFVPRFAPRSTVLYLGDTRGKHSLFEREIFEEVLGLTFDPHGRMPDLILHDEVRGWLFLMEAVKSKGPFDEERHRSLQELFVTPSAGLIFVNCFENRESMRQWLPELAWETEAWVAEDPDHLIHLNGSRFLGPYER
The settings on record: NEB1, 10 mM MgCl2, 37 C.

lambda DNA: the activity (fidelity index) in the series on BsmBI-HF N185Y/R232A was more than 500; in [1], 32; in the series on BstXI it was 4; in [2] it was 16; in [3] it was 32; in series [4], more than 64000. The activity (fidelity index) in the series on BstXI-HF N65A was more than 250; in [5], 4000; in series [6], 16000; in [7], 1000; in [8] it was 120; in series [9], 250. The substance further displayed an activity (fidelity index) in series [10] of 32.
